The target in the data set is T1, NRF1 DD-DBD (Homo sapiens, UniProt Q16656 49-288).
T1 sequence: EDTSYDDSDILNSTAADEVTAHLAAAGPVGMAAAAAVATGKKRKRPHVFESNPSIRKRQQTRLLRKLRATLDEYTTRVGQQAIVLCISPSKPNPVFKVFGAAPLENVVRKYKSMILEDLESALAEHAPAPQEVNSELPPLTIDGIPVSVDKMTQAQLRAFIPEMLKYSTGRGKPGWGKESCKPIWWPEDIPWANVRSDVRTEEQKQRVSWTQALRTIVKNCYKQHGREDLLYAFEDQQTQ
Kind of data set: ITC; two-site fit; DNA 500 uM into 50 uM protein; Kd only in Fig 4B; ITC: 50 mM Tris pH 8.0, 100 mM NaCl, 1 mM EDTA, 1 mM DTT, 25 C; EMSA: Thermo 20148 kit, SH-SY5Y nuclear extract. The settings on record: protein: recombinant; cleaved with HRV 3C when needed; chain copies: 2.

B1: RS(WT) / RS(G) (dsDNA)
DNA 1: GGCGCAGCCGCAGC
DNA 2: GCTGCGGCTGCGCC
Take B1: the binding result was “binds”.

Source of the values: PMC11868986, “Identification of Schizophrenia‐Risk Regulatory Variant rs1399178 in the Non‐coding Region With Its Impact on NRF1 Binding”.
